From article PMC3268813

Target: synthetic wild-type CRN2 coiled coil peptide (human), Q9ULV4
Assay: SEC-MALS

stoichiometry N: 3
B1: synthetic wild-type CRN2 coiled coil peptide, Q9ULV4 442-472 (peptide)
chain: VQNEAKLDEILKEIKSIKDTICNQDERISKLEQQMAKIAA
modifications: not checked
